Source: publication PMC3294146

Columns and labels:
[1] = biological target: Co-hArgI-C^PEG-20K (hArgI-C conjugated at the N-terminal Cys to 20 KDa PEG-maleimide) (human); assay: SEC
[2] = biological target: human Arginase I with an engineered N-terminal Cys residue (hArgI-C), not PEGylated (human); assay: SEC

stoichiometry N [1] | percent dimeric [2] [%] | percent monomeric [2] [%] | Substance
3 |  |  | Co-hArgI-C^PEG-20K (hArgI-C conjugated at the N-terminal Cys to 20 KDa PEG-maleimide) (enzyme)
 | 10 | 90 | human Arginase I with an engineered N-terminal Cys residue (hArgI-C), not PEGylated (enzyme)
